Source: patent US20230391872A1 (ANAPTYSBIO, published 2023)

Target: T1, cynomolgus monkey BTLA on cells (stably transfected 293c18 clone 1G5); cynomolgus peripheral blood T and B … (cynomolgus monkey, UniProt A0A2K5W7M7 31-289)
T1 construct: whole, on cells; also called cynomolgus monkey BTLA 293c18 cells
T1 sequence: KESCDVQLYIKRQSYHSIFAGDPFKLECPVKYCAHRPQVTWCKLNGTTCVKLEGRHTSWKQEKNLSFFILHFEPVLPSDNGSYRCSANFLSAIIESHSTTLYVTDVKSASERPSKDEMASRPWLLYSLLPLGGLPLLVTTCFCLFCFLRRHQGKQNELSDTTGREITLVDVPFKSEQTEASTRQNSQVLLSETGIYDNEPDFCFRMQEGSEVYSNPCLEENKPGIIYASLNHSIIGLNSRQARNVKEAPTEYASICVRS
Assay: flow cytometry (MFI) on 293c18 cells stably expressing cynomolgus monkey BTLA, goat anti-human kappa-PE detection, four-parameter fit [right panel (Cy BTLA 293c18 cells), EC50 box]
Method: 293c18 cell clone 1E4 stably expressing human BTLA construct or clone 1G5 stably expressing cynomolgus monkey BTLA were harvested with Accutase solution (Millipore Sigma/Sigma-Aldrich) and washed once with Phosphate-Buffered Saline, 1% BSA. 293c18 cynomolgus monkey BTLA cells were loaded with the lipophilic carbocyanine dye, DiD (2 μM, 1,1′-dioctadecyl-3,3,3′,3′-tetramenthylindodicarbocyanine; ThermoFisher Scientific) by rocking gently for 10 minutes at room temperature. DiD-stained cells were washed in PBS, 1% BSA and equal amounts of human BTLA 293c18 cells and cynomolgus monkey BTLA 293c18-DiD-stained cells were mixed. Cells (2×10⁵ total cells/sample) were incubated with the indicated concentrations of purified 6G3 IgG4 (two production lots, APE10840.03 and APE10840.04 (H Chain SEQ ID NO: 144, L Chain SEQ ID NO: 174)) or human IgG4 isotype control antibody specific for hen egg lysozyme with gentle shaking for 10 minutes at 4° C. in FACS buffer (PBS, 1% BSA, 0.02% sodium azide). […] Cells were washed and resuspended in FACS buffer and analyzed for fluorescence on a BD FACSArray (BD Biosciences). DiD stained cells expressing cynomolgus monkey BTLA (FIG. 3) were analyzed for median fluorescence intensity (MFI) separately from cells expressing human BTLA (FIG. 3). […]

B1: 6G3 IgG4 anti-BTLA antibody (APE10840 / APE12839 / APE13308) (antibody, V domains shown)
VH: QVQLVQSGAEVKKPGSSVKVSCKASGYVFSTSWMNWVRQAPGQGLEWMGRIYPGDADTNYVGKFKGRVTITADKSTTTAYMELSSLRSEDTAVYFCAKSGTFNFGNYRWYFDVWGKGTTVTVSS
VL: AIQLTQSPSSLSASVGDRVTITCRVSENIYSHLAWYQQKPGKAPKLLIYAATNLALGVPSRFSGSGSGTDYTLTISSLQPEDFATYYCQLFWGPPLTFGGGTKVEIKR
notes: Humanized antibody from a mouse hybridoma, tested as human IgG4 (detected with anti-human kappa); Some assays used labelled lots (DyLight 650, AF647, biotin, DyL488); also called 6G3 antibody; APE10840.03
EC50: 2.3 nM
